Laboratory results reported in US9176064B2, “Bisubstrate fluorescent probes for protein kinase CK2” (University of Tartu, priority 2012, dated 2015).
Where a SMILES comes first, the peptide text is derived from it. [ ]: non-standard residue; d: D form. The star is where a group is joined. X1 = O=C(CCCCCCCn1cnc2c(Br)c(Br)c(Br)c(Br)c21)*

Columns and labels:
Assay in all cases: Kinase panel residual activity
Type in all cases: biochemical
Conditions in all cases: compound at 1 micromolar
PKBa = PKBa (Homo sapiens, UniProt P31749)
DYRK3 = molecular target: T1, DYRK3 (Homo sapiens, UniProt O43781)
T1 sequence (O43781 1-588): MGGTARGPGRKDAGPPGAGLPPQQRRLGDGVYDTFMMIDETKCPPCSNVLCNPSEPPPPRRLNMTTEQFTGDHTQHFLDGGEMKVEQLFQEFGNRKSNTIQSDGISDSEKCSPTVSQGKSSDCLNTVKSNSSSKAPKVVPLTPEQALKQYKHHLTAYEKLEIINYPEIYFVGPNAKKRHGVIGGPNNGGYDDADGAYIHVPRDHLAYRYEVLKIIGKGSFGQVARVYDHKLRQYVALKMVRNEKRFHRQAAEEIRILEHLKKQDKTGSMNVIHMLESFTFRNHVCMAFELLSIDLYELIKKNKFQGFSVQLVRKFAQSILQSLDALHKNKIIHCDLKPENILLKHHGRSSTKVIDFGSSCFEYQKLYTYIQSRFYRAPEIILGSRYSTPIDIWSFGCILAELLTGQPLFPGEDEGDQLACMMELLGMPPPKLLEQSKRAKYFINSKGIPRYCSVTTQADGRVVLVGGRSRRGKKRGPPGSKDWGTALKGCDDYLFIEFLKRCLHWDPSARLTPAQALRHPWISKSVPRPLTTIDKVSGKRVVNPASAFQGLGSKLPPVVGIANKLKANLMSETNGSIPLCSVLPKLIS

ERK8 = molecular target: T2, ERK8 (Homo sapiens, UniProt Q8TD08)
T2 sequence (Q8TD08 1-544): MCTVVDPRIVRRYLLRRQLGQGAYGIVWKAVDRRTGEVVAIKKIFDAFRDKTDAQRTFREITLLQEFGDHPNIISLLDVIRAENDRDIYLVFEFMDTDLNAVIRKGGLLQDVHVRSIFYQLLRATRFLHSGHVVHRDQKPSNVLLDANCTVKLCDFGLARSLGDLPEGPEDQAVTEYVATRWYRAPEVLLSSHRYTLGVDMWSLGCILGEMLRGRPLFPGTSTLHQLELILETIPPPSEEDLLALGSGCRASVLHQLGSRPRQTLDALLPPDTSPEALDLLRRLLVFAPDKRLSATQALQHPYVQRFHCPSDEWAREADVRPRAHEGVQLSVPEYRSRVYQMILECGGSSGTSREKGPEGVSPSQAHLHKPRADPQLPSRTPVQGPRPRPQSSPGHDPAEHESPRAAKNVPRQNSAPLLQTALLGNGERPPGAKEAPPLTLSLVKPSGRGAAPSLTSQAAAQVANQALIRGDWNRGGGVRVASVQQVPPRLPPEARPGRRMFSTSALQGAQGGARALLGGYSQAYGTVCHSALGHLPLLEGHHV

WNK1 = WNK1 (Homo sapiens, UniProt Q9H4A3)
CDK2-Cyclin A = CDK2-Cyclin A (Homo sapiens, UniProt P24941)
MELK = MELK (Homo sapiens, UniProt Q14680)
TGFBR1 = molecular target: T3, TGFBR1 (Homo sapiens, UniProt P36897)
T3 sequence (P36897 34-503): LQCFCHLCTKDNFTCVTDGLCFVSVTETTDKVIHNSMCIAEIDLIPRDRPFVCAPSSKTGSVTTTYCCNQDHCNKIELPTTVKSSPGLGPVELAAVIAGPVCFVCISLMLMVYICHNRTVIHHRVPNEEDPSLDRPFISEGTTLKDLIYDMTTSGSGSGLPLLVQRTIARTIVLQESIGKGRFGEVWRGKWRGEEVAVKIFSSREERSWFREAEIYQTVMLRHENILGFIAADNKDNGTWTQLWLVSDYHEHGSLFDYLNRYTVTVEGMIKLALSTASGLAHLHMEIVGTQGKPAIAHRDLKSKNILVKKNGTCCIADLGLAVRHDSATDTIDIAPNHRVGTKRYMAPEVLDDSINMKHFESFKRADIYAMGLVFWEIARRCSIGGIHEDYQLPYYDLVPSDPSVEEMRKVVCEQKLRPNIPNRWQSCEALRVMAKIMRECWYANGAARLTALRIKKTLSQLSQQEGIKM

STK33 = STK33 (Homo sapiens, UniProt Q9BYT3)
IRAK4 = molecular target: T4, IRAK4 (Homo sapiens, UniProt Q9NWZ3)
T4 sequence (Q9NWZ3 1-460): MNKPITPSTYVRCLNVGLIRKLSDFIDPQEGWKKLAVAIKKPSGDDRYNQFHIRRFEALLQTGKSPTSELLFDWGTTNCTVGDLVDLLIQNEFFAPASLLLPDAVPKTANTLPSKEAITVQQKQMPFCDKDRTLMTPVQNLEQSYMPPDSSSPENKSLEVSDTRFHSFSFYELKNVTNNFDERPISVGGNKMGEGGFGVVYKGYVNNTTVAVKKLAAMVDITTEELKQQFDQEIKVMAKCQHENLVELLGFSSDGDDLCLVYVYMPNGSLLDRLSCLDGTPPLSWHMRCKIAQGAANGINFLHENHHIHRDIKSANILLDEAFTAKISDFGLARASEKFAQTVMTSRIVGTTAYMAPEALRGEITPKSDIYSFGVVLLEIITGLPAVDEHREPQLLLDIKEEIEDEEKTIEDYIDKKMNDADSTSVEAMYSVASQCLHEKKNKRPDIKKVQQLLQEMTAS

HER4 = HER4 (Homo sapiens, UniProt Q15303)
CAMK1 = CAMK1 (Homo sapiens, UniProt Q14012)
HIPK2 = HIPK2 (Homo sapiens, UniProt Q9H2X6)
Lck = Lck (Homo sapiens, UniProt P06239)
PKCa = PKCa (Homo sapiens, UniProt P17252)
GSK3b = GSK3b (Homo sapiens, UniProt P49841)
EPH-A2 = EPH-A2 (Homo sapiens, UniProt P29317)
EPH-A4 = EPH-A4 (Homo sapiens, UniProt P54764)
Chain of EPH-A4 (P54764 20-986, species assumed): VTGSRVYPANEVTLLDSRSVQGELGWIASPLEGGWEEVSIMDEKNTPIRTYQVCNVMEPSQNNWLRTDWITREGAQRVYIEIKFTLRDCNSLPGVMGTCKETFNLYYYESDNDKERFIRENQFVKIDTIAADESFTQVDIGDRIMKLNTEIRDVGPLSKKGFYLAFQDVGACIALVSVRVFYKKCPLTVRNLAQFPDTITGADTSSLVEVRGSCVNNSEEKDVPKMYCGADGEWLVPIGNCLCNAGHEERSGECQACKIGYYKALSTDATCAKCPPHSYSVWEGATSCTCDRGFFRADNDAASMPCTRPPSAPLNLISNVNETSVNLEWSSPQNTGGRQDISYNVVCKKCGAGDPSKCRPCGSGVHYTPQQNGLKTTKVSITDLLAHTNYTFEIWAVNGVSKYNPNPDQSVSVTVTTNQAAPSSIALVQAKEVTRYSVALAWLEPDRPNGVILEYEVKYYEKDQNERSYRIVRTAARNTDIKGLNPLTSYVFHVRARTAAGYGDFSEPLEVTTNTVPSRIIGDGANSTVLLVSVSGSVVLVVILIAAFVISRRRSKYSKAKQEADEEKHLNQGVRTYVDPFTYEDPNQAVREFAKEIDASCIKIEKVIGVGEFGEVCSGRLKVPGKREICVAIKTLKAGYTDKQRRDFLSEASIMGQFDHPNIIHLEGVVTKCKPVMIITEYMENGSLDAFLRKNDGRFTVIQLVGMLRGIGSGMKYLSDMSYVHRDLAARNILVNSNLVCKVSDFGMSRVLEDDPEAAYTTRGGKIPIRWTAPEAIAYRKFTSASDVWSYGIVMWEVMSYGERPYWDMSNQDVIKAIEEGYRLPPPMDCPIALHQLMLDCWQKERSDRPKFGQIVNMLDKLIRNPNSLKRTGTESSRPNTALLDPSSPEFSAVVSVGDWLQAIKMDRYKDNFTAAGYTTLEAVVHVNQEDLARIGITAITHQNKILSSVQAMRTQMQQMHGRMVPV

Chain of GSK3b (P49841 whole entry, species assumed): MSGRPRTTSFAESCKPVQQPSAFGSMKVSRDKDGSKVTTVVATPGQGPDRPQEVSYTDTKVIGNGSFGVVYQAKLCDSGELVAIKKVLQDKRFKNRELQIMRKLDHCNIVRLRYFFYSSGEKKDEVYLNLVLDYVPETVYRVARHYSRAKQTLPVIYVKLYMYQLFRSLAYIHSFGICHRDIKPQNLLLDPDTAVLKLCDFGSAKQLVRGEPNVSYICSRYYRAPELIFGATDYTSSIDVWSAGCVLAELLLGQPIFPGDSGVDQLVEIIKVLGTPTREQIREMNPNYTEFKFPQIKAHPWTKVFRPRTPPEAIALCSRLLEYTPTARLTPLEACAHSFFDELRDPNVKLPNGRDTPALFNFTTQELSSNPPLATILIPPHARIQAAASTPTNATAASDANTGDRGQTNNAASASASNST
Chain of MELK (Q14680 whole entry, species assumed): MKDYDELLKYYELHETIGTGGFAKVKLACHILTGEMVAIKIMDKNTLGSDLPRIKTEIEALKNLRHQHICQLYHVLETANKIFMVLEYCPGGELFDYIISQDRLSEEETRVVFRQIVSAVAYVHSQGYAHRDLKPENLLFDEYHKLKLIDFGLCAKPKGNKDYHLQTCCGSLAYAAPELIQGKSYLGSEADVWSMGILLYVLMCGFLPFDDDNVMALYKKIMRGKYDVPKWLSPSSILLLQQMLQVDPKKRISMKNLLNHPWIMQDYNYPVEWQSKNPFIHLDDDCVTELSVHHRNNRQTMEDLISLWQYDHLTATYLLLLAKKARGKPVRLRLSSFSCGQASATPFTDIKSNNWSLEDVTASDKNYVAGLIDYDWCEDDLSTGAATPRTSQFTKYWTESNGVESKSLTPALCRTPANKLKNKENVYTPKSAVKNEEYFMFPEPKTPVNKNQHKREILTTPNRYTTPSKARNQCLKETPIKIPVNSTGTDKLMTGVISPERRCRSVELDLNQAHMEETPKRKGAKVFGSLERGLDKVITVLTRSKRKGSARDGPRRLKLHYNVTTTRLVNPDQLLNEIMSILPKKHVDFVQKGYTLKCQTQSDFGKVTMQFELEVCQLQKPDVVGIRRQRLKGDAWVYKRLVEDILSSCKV
Chain of EPH-A2 (P29317 24-976, species assumed): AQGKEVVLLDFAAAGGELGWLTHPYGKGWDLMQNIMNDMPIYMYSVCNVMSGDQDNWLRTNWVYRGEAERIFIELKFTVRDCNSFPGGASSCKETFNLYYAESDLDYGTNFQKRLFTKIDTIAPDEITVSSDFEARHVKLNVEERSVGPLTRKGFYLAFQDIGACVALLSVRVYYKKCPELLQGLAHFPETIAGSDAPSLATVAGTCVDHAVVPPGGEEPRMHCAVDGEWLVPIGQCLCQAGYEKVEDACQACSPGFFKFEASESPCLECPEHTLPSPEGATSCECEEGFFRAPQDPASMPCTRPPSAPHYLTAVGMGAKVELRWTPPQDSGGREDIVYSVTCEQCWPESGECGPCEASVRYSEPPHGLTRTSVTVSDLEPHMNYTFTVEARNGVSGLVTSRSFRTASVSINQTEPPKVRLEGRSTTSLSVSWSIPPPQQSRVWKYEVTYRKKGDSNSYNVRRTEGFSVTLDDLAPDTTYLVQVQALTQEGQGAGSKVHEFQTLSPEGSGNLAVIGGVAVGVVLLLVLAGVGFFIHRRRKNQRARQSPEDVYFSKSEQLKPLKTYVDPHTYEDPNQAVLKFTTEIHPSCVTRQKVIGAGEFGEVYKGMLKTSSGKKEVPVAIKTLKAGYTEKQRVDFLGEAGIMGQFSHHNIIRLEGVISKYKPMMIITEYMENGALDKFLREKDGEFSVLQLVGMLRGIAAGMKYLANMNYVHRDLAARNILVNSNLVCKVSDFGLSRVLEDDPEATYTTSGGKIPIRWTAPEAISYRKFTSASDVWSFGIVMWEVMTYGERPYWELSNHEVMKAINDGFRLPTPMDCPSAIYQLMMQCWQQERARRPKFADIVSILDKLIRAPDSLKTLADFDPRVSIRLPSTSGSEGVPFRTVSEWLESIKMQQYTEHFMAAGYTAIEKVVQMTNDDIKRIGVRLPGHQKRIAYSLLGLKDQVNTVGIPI
Chain of STK33 (Q9BYT3 whole entry, species assumed): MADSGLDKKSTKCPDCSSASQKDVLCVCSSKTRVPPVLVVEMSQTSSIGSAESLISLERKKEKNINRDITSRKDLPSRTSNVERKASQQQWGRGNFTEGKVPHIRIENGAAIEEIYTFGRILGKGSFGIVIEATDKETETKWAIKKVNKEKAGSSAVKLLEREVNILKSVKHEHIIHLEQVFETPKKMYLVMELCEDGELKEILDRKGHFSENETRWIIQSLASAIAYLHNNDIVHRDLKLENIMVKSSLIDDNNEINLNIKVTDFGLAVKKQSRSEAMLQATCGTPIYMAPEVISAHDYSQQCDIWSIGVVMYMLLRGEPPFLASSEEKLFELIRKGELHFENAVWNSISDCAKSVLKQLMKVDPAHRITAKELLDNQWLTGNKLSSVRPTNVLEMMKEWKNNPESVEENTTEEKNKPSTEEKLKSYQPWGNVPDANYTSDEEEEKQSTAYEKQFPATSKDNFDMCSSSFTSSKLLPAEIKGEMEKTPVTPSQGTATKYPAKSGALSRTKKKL
Chain of Lck (P06239 whole entry, species assumed): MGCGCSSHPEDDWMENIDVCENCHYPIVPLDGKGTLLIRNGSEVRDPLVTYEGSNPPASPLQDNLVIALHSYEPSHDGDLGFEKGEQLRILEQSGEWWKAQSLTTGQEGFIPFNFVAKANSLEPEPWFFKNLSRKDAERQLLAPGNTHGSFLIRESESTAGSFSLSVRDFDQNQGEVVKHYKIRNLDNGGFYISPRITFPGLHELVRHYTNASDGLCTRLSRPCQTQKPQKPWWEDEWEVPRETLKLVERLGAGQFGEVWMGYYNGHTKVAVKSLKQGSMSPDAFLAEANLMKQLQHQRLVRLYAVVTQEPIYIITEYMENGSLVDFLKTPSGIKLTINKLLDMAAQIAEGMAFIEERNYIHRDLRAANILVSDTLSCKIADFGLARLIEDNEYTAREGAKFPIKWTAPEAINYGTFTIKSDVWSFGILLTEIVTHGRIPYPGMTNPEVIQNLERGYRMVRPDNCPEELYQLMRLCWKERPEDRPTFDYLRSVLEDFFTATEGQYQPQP

NCCCC[C@H](NC(=O)[C@H](CC(=O)O)NC(=O)[C@H](CC(=O)O)NC(=O)[C@H](CC(=O)O)NC(=O)[C@H](CC(=O)O)NC(=O)[C@H](CC(=O)O)NC(=O)[C@@H](CC(=O)O)NC(=O)CCCCCCCn1cnc2c(Br)c(Br)c(Br)c(Br)c21)C(=O)O [TBBI-OcA-(D-Asp)-(L-Asp)5-(L-Lys)-OH] (X1-[dD]DDDDDK-OH)
remaining activity at 1 µM (PKBa): 73% | remaining activity at 1 µM (DYRK3): 30% | remaining activity at 1 µM (ERK8): 25% | remaining activity at 1 µM (WNK1): 88% | remaining activity at 1 µM (CDK2-Cyclin A): 64% | remaining activity at 1 µM (MELK): 92% | remaining activity at 1 µM (TGFBR1): 98% | remaining activity at 1 µM (STK33): 96% | remaining activity at 1 µM (IRAK4): 118% | remaining activity at 1 µM (HER4): 103% | remaining activity at 1 µM (CAMK1): 105% | remaining activity at 1 µM (HIPK2): 36% | remaining activity at 1 µM (Lck): 62% | remaining activity at 1 µM (PKCa): 94% | remaining activity at 1 µM (GSK3b): 46% | remaining activity at 1 µM (EPH-A2): 80% | remaining activity at 1 µM (EPH-A4): 117%
